From article PMC11019746 (ACS Pharmacology & Translational Science, 2024)
Like-named read-outs stand apart in the source and are kept apart here. Where no end group is shown, it is not given here.

T1: hY2R (Homo sapiens, UniProt P49146)
T1 construct: host or cells: CHO
T1 sequence (P49146 1-381): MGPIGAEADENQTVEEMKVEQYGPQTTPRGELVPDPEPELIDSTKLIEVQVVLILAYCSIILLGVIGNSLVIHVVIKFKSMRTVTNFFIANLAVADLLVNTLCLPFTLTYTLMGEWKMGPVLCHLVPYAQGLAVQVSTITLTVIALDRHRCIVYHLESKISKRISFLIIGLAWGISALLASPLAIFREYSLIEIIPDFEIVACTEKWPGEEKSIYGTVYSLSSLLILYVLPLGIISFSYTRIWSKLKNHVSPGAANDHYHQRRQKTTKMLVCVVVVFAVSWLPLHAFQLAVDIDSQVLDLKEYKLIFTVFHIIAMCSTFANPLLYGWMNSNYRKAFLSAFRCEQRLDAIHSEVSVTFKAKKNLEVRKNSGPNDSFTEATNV

T2: hY1R (Homo sapiens, UniProt P25929)
T2 construct: host or cells: SK-N-MC neuroblastoma cells
T2 sequence (P25929 1-384): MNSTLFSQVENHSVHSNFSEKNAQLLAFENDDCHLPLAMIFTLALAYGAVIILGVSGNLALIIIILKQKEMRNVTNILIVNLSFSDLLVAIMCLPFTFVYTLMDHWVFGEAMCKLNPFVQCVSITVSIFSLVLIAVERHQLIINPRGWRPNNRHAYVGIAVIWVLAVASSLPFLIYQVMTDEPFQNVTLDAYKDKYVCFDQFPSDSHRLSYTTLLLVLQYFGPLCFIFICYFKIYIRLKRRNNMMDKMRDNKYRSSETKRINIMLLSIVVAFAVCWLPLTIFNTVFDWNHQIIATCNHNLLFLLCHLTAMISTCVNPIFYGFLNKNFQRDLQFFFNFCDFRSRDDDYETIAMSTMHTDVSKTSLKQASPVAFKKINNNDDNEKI

T3: hY5R (Homo sapiens, UniProt Q15761)
T3 construct: expressed in transfected cells; host or cells: HEC-1B (human endometrial cancer)
T3 sequence (Q15761 1-445): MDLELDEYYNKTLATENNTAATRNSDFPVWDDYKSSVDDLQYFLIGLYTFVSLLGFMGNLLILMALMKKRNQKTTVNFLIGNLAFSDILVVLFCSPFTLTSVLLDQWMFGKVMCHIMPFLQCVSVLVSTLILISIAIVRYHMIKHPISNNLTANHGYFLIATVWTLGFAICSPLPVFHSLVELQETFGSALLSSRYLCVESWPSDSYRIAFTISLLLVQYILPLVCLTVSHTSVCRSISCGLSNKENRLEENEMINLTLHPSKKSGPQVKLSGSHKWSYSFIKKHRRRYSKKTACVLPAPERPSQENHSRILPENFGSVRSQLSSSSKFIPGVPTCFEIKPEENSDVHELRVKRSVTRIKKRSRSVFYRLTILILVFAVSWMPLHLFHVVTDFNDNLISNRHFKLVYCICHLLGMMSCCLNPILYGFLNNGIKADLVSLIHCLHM

T4: human neuropeptide Y Y2 receptor (human, UniProt P49146 1-381)
T4 construct: also called hY2R; source: CHO-hY2R cells (from PerkinElmer), intact cells
T4 sequence (looked up): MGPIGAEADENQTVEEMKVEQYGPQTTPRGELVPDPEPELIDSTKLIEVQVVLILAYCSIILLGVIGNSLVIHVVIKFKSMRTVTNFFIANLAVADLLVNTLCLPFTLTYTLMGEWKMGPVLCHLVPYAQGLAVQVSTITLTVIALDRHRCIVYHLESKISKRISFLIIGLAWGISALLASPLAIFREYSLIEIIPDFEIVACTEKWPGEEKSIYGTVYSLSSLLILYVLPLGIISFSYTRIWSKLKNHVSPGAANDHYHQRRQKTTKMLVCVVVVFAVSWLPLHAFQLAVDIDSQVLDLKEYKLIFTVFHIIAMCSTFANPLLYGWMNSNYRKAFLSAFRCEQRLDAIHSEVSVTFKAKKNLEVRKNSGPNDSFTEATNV


Key:
hY4R [1] = target: T5, hY4R (Homo sapiens, UniProt P50391); set-up: expressed in transfected cells; host or cells: CHO (co-expressing Gqi5 and mitochondrially targeted aequorin); details: cited from earlier work
Y4R = Y4R (Homo sapiens, UniProt P50391); assay: Y4R miniGsi recruitment assay (HEK293T-NlucN-mGsi/Y4R-NlucC cells); type: cell-based; set-up: expressed in transfected cells; host or cells: HEK293T; details: read-out: miniGsi recruitment Emax ± SEM; note: relative to 1 µM hPP (100%)
Description: Furimazine was used as nanoluciferase substrate. The original stock was diluted 1:1000 in L15-HEPES to obtain the feed solution for the assay. Data analysis was performed based on the areas under the curves (time window: 45 min starting with the agonist addition) using GraphPad Prism 5. […] Efficacies Emax correspond to the upper plateaus of the normalized concentration–response curves.

hY2R = target: T1, hY2R; assay: Y2R radioligand competition binding, whole CHO-hY2R cells, [3H]propionyl-pNPY; details: read-out: pKi ± SEM hY2R (converted)
Description: (§1) All radioligand binding assays were performed at intact Y receptor expressing cells at 23 ± 2 °C.

hY1R = target: T2, hY1R; assay: Y1R radioligand competition binding, whole SK-N-MC cells, [3H]UR-MK299; details: SK-N-MC neuroblastoma cells, [3H]UR-MK299 c = […]; read-out: pKi ± SEM hY1R (converted)
Description: as §1
Competition binding assays at Y1R-expressing SK-N-MC neuroblastoma cells were performed as previously described using [^3H]UR-MK299 as radioligand (concentration: 0.15 nM).[33] […] (logarithmic form in the case of pKi values).

hY5R = target: T3, hY5R; assay: Y5R radioligand competition binding, whole HEC-1B-hY5R cells, [3H]propionyl-pNPY; details: [3H]propionyl-pNPY c = 5 nM
Description: as §1
(logarithmic form in the case of pKi values).

hY4R [2] = target: T5, hY4R; assay: Y4R Ca2+ aequorin assay (CHO-hY4R-Gqi5-mtAEQ cells); type: cell-based; set-up: expressed in transfected cells; host or cells: CHO (co-expressing Gqi5 and mitochondrially targeted aequorin); details: for EC50: CHO-hY4R-Gqi5-mtAEQ cells, agonist mode, read-out: Ca2+-aequorin pEC50 ± SEM (converted); for Emax: read-out: Ca2+-aequorin Emax ± SEM
Description: The assay was performed with live CHO-hY4R-Gqi5-mtAEQ cells as previously described (used buffer: buffer III). Measurements were carried out on a Tecan Infinite Lumi plate reader. Data analysis was performed as reported using GraphPad Prism 5 for the calculation of the area under the curve. […] Efficacies Emax correspond to the upper plateaus of the normalized concentration–response curves.

[3] = Chemical stability in PBS pH 7.4; type: physicochemical
Description: The chemical stability of the fluorescent ligands 16, 17, and 18 was investigated in PBS (adjusted to pH 7.4) at 22 °C. […] After time periods of 0, 6, and 48 h, an aliquot (25 μL) was withdrawn and added to 25 μL of acetonitrile/0.04% aq. TFA 1:9 v/v to obtain a peptide solution with a concentration of 50 μM. 20 μL of this solution were subjected to analytical RP-HPLC analysis using the same system and conditions as described under Analytical HPLC, but applying a different linear gradient: 0–14 min: A/B 90:10–45:55, 14–15 min: 45:55–5:95, 15–19 min: 5:95 (isocratic). A 1:1 mixture of PBS and acetonitrile/0.04% aq. TFA 1:9 v/v (20 μL) was analyzed to obtain the blank chromatogram.

[4] = target: T4, human neuropeptide Y Y2 receptor; assay: radioligand binding; competition with [^3H]propionyl-pNPY (0.5 nM) at intact CHO-hY2R cells, 23 ± 2 °C, buffer I (sodium-free); details: one partner purified
[5] = target: T6, human neuropeptide Y Y4 receptor (wild-type, CHO-hY4R-Gqi5-mtAEQ cells) (human, UniProt P50391 1-375); assay: flow cytometry on cells; association (0.7 nM 16, 1 nM 17, 0.5 nM 18) and dissociation (started with excess hPP and 5) at CHO-hY4R-Gqi5-mtAEQ cells, DPBS (137 mM Na^+), 22 ± 2 °C; monophasic and biphasic fits; Kd(kin) = koff/kon; details: one partner purified
T6 construct: The cells also express Gqi5 and mitochondrially targeted aequorin; also called wild-type Y4R

[6] = target: human neuropeptide Y Y5 receptor (human) (UniProt Q15761); assay: radioligand binding; competition with [^3H]propionyl-pNPY (5 nM) at intact HEC-1B-hY5R cells, 23 ± 2 °C, buffer II (150 mM NaCl)
[7] = target: human neuropeptide Y Y1 receptor (human) (UniProt P25929); assay: radioligand binding; competition with [^3H]UR-MK299 ([…]) at intact SK-N-MC cells, 23 ± 2 °C, buffer II (150 mM NaCl)
[8] = target: T6, human neuropeptide Y Y4 receptor …; assay: cell-based or functional assay

Molecule | pKi [4] | kobs(bi,fast) [5] | kobs(bi,slow) [5] | kobs(mono) [5] | pKi [6] | pKi [7] | Kd (hY4R [1]) | further results
1: Sulfo-Cy5-labeled [K^4,Nle^17,30]hPP, reported Y4R fluorescent ligand [Compound 1] | – | – | – | – | – | – | 11 nM | –
2: 5-TAMRA-labeled [K^18,Nle^17,30]hPP, reported Y4R fluorescent ligand [Compound 2] | – | – | – | – | – | – | 26 nM | –
Sulfo-Cy5-[K^4]hPP: Sulfo-Cy5-labeled [K^4]hPP, reported fluorescent Y4R ligand (APLKPVYPGDNATPEQMAQYAADLRRYINMLTRPRY; not fully specified) | – | – | – | – | – | – | 5.6 nM | –
C#CCCCCNC(=O)N=C(N)NCCC[C@@H]1NC(=O)CCC(=O)NCCCCNC(=O)N=C(N)NCCC[C@@H](C(=O)N[C@@H](CC(C)C)C(=O)N[C@@H](CCCNC(=N)N)C(=O)N[C@@H](Cc2ccc(O)cc2)C(N)=O)NC(=O)[C@H](Cc2ccc(O)cc2)NC1=O [Compound 11, (9S,12S,15S,E)-4-Amino-N-{(S)-1-[((S)-1-{[(S)-1-amino-3-(4-hydroxyphenyl)-1-oxopropan-2-yl]amino}-5-guanidino-1-oxopentan-2-yl)amino]-4-methyl-1-oxopentan-2-yl}-15-{3-[(E)-2-(hex-5-yn-1-ylcarbamoyl)guanidino]propyl}-12-(4-hydroxybenzyl)-2,11,14,17,20-pentaoxo-1,3,5,10,13,16,21-heptaazacyclopentacos-3-ene-9-carboxamide Tris(hydrotrifluoroacetate)] | – | – | – | – | – | – | – | Emax (Y4R): 62 ± 1%; Ki (hY2R): > 10000 nM; Ki (hY1R): > 10000 nM; Ki (hY5R; read-out: Ki hY5R (converted)): > 3000 nM; Ki (hY5R; read-out: pKi ± SEM hY5R (converted)): > 3160 nM; EC50 (hY4R [2]): 97.7 nM; Emax (hY4R [2]): 56 ± 3%
Cc1cc(/C=C/c2cc3c4c(c2)CCCN4CCC3)cc(C)[n+]1CCCC(=O)N[C@@H]1CC(=O)N[C@@H](CCCNC(=N)N)C(=O)N[C@@H](Cc2ccc(O)cc2)C(=O)N[C@H](C(=O)N[C@@H](CC(C)C)C(=O)N[C@@H](CCCNC(=N)N)C(=O)N[C@@H](Cc2ccc(O)cc2)C(N)=O)CCCNC(N)=NC(=O)NCCCCNC1=O [Compound 18] | – | – | – | – | – | – | – | Emax (Y4R): 44 ± 2%; Ki (hY2R): > 1000 nM; Ki (hY1R): > 1000 nM; Ki (hY5R; read-out: Ki hY5R (converted)): 840 nM; time with marginal degradation ([3]; PBS pH 7.4 (10% DMSO), room temperature): ≥ 6 h; chemical stability ([3]; PBS pH 7.4, room temperature, 48 h, 100 μM): slow decomposition; EC50 (hY4R [2]): 50.1 nM; Emax (hY4R [2]): 61 ± 5%

Second part, led by results:

pKi [4] | kobs(bi,fast) [5] | kobs(bi,slow) [5] | kobs(mono) [5] | pKi [6] | pKi [7] | Molecule | Kd (hY4R [1]) | further results
< 6 | 0.7 min⁻¹ | 0.034 min⁻¹ | 0.1 min⁻¹ | 6.08 | < 6 | RYRLRY-NH2 (also: Py-1 cyanine dye on the amine of a carbamoylated Arg in the ring, position not given here, cyclic, ring closure not given here, peptide part as in m6; structure drawn in Scheme 2; source: synthetic peptide: from precursor peptide 6 and the pyrylium dye Py-1 (14), preparative HPLC) [fluorescent ligand 18 (Py-1-labeled cyclic hexapeptide)] | – | –
< 6 | – | – | – | < 6 | < 6 | RYRLRY (not fully specified; as 11; the alkyne of the carbamoylated arginine in position 1 joined by click chemistry (triazole) to the azido-functionalized pyridinium-type cyanine dye 15 (from Py-5); C-terminal amide, peptide chain as in 11, whose linear precursor 10 is printed in three-letter code at h-0020; 19 is made from 11 and dye 15; source: synthetic peptide: from 11 and the azido-functionalized dye 15 by copper(I)-catalyzed click reaction, preparative HPLC) [fluorescent ligand 19 (Py-5-labeled cyclic hexapeptide)] | – | EC50, Ca^2+-aequorin assay (CHO-hY4R-Gqi5-mtAEQ cells) [8]: 58 nM
< 6 | 1 min⁻¹ | 0.048 min⁻¹ | 0.18 min⁻¹ | 6.32 | 6.91 | RYRLRY-NH2 (not fully specified (bridges); also: Cy3B conjugated to the amine of the cyclic precursor peptide 6, N^ω-carbamoylated arginine in the ring, position not given here, structure drawn in Scheme 2; source: synthetic peptide: from precursor peptide 6 and Cy3B succinimidyl ester (12), preparative HPLC) [fluorescent ligand 16 (Cy3B-labeled cyclic hexapeptide)] | – | –
< 6 | 1.89 min⁻¹ | 0.071 min⁻¹ | 0.15 min⁻¹ | < 6 | < 6 | RYRLRY-NH2 (also: Sulfo-Cy5 (S0223) conjugated to the amine of the cyclic precursor peptide 6, N^ω-carbamoylated arginine in the ring, position not given here, peptide part as in m6; structure drawn in Scheme 2; source: synthetic peptide: from precursor peptide 6 and the succinimidyl ester 13 (S0586) of Sulfo-Cy5 (S0223), preparative HPLC) [fluorescent ligand 17 (Sulfo-Cy5-labeled cyclic hexapeptide)] | – | –
